The record followed here is publication PMC2958304.

The test addresses Fat (Ft), full-length (pAct-ft) (Drosophila) (UniProt P33450). Nature of the test: cell aggregation assay; S2 cells transfected with ft mixed with S2 cells transfected with ds (one set cotransfected with pMK33B fj forms, with or without CuSO4 for 16 hr); rotated 100 rpm 2 hr, immunolabelled; percent of ft-expressing cells binding to ds-expressing cells counted.
Chain of UniProt P33450 (P33450 36-5147): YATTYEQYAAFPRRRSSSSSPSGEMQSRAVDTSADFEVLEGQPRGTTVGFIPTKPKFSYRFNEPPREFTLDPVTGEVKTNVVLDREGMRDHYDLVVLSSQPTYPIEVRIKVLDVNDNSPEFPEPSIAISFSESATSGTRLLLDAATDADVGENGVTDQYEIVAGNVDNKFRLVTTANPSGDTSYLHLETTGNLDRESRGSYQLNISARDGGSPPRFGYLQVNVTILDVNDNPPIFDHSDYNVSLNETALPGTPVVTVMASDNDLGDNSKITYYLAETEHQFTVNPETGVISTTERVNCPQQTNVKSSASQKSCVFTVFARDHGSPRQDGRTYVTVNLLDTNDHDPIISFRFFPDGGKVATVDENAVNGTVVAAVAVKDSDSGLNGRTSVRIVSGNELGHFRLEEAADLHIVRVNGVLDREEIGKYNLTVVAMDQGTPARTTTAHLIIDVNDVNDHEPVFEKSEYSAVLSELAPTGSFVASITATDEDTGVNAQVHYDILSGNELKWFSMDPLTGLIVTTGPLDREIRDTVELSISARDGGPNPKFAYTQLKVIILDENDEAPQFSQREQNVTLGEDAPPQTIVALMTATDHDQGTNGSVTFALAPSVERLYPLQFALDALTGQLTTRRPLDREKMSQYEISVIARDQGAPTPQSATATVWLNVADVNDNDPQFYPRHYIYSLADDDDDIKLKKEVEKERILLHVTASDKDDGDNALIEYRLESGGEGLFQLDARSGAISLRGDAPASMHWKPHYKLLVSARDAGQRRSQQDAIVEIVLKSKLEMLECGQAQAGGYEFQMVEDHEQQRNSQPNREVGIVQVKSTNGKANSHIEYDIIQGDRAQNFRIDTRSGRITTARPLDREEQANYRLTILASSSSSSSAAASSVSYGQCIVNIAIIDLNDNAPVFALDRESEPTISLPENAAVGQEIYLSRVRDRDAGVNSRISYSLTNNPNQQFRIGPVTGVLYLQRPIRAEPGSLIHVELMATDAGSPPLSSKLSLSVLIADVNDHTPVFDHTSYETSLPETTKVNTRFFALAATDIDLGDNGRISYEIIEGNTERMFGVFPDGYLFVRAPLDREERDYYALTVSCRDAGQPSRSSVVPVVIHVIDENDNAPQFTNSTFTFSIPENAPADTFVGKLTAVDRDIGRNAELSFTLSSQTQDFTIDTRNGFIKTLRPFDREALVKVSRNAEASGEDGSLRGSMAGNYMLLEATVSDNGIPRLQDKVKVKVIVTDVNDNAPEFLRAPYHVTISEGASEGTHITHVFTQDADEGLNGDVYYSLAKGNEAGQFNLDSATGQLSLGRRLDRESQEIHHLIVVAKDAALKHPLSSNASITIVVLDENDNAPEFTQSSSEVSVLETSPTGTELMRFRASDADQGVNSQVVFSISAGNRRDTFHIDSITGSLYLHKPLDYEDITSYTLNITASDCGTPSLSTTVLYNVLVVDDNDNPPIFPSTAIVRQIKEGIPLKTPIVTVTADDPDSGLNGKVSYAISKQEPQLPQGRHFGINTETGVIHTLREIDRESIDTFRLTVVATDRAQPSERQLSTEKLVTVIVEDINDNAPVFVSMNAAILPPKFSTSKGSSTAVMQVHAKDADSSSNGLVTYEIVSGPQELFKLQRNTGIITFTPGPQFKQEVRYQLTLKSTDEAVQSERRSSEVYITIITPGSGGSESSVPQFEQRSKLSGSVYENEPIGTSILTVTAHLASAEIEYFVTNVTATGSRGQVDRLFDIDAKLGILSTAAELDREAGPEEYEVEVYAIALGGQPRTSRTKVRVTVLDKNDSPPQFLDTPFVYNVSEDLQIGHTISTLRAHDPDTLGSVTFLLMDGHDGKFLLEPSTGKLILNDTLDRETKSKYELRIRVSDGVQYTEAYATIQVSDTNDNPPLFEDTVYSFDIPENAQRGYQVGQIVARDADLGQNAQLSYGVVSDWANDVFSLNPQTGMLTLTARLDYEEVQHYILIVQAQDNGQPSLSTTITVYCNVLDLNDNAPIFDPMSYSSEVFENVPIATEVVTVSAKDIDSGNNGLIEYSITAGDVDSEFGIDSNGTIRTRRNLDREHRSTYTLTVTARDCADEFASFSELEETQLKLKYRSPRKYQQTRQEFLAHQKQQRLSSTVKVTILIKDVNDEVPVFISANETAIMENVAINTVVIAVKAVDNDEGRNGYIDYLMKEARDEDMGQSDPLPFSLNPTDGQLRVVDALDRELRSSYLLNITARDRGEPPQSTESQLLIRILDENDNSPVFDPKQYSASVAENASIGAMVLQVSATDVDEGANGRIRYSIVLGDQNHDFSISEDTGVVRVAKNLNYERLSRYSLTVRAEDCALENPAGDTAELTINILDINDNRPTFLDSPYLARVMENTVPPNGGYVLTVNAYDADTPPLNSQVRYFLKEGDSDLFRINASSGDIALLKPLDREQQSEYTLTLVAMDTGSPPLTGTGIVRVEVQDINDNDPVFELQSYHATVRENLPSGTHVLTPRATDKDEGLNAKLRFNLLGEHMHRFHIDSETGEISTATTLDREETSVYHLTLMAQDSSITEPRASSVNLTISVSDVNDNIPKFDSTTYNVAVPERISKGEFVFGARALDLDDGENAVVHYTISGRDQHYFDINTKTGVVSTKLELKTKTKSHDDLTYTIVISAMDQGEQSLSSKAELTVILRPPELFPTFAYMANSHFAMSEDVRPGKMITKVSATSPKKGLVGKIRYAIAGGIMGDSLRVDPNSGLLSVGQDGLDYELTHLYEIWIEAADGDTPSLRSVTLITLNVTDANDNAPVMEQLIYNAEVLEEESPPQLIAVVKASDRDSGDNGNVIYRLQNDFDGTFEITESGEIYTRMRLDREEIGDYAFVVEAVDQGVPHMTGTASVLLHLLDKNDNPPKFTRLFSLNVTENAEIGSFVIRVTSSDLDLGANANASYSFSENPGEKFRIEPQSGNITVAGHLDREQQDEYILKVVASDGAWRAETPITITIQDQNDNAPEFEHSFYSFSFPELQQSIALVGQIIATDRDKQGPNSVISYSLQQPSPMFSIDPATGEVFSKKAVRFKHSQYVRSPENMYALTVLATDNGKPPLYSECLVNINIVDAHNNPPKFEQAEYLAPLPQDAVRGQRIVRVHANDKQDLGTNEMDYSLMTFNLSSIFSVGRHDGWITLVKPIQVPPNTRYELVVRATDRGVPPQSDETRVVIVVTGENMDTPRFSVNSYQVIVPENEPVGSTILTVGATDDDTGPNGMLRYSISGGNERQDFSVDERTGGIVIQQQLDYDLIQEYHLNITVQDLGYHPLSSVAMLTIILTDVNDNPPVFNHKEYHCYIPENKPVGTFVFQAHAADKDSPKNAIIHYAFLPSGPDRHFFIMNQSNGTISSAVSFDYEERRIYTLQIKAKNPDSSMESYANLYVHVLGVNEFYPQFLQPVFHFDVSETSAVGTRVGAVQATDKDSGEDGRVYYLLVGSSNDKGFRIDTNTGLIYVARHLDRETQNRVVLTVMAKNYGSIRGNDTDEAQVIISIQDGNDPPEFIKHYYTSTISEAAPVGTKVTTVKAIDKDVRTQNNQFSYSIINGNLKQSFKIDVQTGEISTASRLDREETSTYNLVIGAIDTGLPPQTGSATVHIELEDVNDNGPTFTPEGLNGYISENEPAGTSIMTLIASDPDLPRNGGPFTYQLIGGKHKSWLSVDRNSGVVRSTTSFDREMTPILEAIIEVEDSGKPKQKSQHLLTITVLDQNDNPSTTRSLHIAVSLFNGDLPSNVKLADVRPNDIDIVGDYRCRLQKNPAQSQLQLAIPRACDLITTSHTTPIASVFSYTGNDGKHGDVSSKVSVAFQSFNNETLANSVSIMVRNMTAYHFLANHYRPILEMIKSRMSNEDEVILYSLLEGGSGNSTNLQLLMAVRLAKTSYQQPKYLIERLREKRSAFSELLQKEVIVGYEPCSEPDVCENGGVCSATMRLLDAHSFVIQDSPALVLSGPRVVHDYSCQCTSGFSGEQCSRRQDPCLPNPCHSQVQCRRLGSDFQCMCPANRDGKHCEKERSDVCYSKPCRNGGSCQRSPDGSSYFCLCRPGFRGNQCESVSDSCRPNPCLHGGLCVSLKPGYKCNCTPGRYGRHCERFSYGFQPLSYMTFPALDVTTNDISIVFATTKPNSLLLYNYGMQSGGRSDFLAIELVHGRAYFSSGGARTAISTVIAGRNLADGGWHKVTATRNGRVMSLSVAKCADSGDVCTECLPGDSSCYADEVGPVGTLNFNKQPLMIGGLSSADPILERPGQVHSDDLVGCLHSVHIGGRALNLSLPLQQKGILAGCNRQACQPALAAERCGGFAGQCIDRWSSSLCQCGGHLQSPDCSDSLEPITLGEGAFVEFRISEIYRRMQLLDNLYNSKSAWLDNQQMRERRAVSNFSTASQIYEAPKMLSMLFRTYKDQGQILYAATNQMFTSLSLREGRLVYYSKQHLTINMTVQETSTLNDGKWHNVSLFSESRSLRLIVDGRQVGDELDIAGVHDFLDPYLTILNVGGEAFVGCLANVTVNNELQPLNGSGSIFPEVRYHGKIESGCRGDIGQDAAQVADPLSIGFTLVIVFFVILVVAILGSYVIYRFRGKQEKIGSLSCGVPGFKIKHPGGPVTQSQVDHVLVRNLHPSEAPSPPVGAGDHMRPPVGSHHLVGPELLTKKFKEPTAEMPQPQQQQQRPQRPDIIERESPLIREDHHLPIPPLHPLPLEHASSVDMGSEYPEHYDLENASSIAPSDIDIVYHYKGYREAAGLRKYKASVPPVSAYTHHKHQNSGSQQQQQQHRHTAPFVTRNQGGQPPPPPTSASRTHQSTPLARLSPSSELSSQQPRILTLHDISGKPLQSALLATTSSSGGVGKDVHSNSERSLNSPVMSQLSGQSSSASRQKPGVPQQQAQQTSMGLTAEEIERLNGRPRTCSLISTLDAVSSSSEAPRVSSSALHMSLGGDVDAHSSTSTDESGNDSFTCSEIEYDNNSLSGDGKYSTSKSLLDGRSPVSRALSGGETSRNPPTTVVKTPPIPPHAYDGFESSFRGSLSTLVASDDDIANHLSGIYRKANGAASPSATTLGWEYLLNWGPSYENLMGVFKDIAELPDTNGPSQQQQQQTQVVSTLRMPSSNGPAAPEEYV

Consider “Dachsous (Ds), untagged form, coexpressed with Fj or GNT-Fj (phosphorylated by Fj) (receptor)”, for which the reduction of binding against the same cells without Fj induction amounted to 40%.
